Molecular target: the molecule itself
Assay: cryo-EM structure

B1: rat GluD2 receptor, C-terminally truncated at residue 870 (GluD2Δ870) (receptor, UniProt Q63226 24-870, looked up)
chain: DSIIHIGAIFDESAKKDDEVFRTAVGDLNQNEEILQTEKITFSVTFVDGNNPFQAVQEACELMNQGILALVSSIGCTSAGSLQSLADAMHIPHLFIQRSTAGTPRSGCGLTRSNRNDDYTLSVRPPVYLNEVILRVVTEYAWQKFIIFYDSEYDIRGIQEFLDKVSQQGMDVALQKVENNINKMITTLFDTMRIEELNRYRDTLRRAILVMNPATAKSFISEVVETNLVAFDCHWIIINEEINDVDVQELVRRSIGRLTIIRQTFPVPQNISQRCFRGNHRISSTLCDPKDPFAQNMEISNLYIYDTVLLLANAFHKKLEDRKWHSMASLSCIRKNSKPWQGGRSMLETIKKGGVNGLTGDLEFGENGGNPNVHFEILGTNYGEELGRGVRKLGCWNPVTGLNGSLTDKKLENNMRGVVLRVVTVLEEPFVMVSENVLGKPKKYQGFSIDVLDALSNYLGFNYEIYVAPDHKYGSPQEDGTWNGLVGELVFKRADIGISALTITPDRENVVDFTTRYMDYSVGVLLRRAEKTVDMFACLAPFDLSLWACIAGTVLLVGLLVYLLNWLNPPRLQMGSMTSTTLYNSMWFVYGSFVQQGGEVPYTTLATRMMMGAWWLFALIVISSYTANLAAFLTITRIESSIQSLQDLSKQTDIPYGTVLDSAVYQHVRMKGLNPFERDSMYSQMWRMINRSNGSENNVLESQAGIQKVKYGNYAFVWDAAVLEYVAINDPDCSFYTVGNTVADRGYGIALQHGSPYRDVFSQRILELQQSGDMDILKHKWWPKNGQCDLYSSVDAKQKGGALDIKSLAGVFCILAAGIVLSCLIAVLETWWSRRKGSRVPSKEDDK
stoichiometry N: 4

Reference: publication doi:10.1101/2020.01.10.902072 (bioRxiv, 2020)
